In US20240083996A1, “COMPOSITION FOR PROPHYLAXIS OR TREATMENT OF IL-8 RELATED DISEASES” (Chugai Seiyaku Kabushiki Kaisha, priority 2016, published 2024):
Blank lines part the entries; values can stand above or below the molecule they belong to.

Experiments:
[1] = system: cystic fibrosis; conditions: J Cyst Fibros. 2013; cited from earlier work
[2] = system: COPD; conditions: Am J Respir Crit Care Med. 2015; worsened in the placebo group; cited from earlier work
[3] = known values for commercially available antibodies (FIG. 19); cited from earlier work
[4] = system: soluble forms of FcγRIa and FcγRIIIa in human and cynomolgus monkey; experiment: Binding to various FcγRs (BIACORE T200); conditions: 20° C., HBS-EP+ (FIG. 27)
Description: Soluble FcγRIa and FcγRIIIa in both human and cynomolgus monkey were produced in the form of His-tagged molecules by methods known to those of ordinary skill in the art. […] Next, soluble FcγRIa or FcγRIIIa was injected with a running buffer (used as a reference solution), and was made to interact with the antibodies captured onto the sensor chip. HBS-EP+ (GE Healthcare) was used as the running buffer, and HBS-EP+ was also used to dilute the soluble FcγRIa or FcγRIIIa. […] All measurements were carried out at 20° C.

Molecule: O=C(Nc1ccc(Cl)c(S(=O)(=O)N2CCNCC2)c1O)Nc1cccc(F)c1Cl [Elubrixin]
topical neutrophil migration in cystic fibrosis [1]: Topical neutrophil migration was observed to be suppressed

Molecule: CC[C@@H](Nc1c(Nc2cccc(C(=O)N(C)C)c2O)c(=O)c1=O)c1ccc(C)o1 [MK7123]
pulmonary function (FEV1) in COPD patients [2]: pulmonary function (FEV1) was improved in the active drug group

Molecule: Alemtuzumab [Campath]
frequency of ADA development in humans [3]: 45%

Molecule: Daclizumab [Zenapax]
frequency of ADA development in humans [3]: 14%

binding to FcγRs (hFcγRIa, hFcγRIIIa, cynoFcγRIa, cynoFcγRIIIa) [4]: bind to all FcγRs
B1: H1009/L395-F1886m: variable region of H1009/L395 with Fc variant F1886m (antibody)
heavy: QVQLVESGGGLVQPGGSLRLSCAASGFTFSDYYLSWVRQAPGKGLEWVGLIRNKDNYHTPEYSASVKGRFTISRDDSKNSLYLTMSDLKTEDTAVYYCARENHRYDVELAYWGQGTLVTVSSASTKGPSVFPLAPSSKSTSGGTAALGCLVKDYFPEPVTVSWNSGALTSGVHTFPAVLQSSGLYSLSSVVTVPSSSLGTQTYICNVNHKPSNTKVDKKVEPKSCDKTHTCPPCPAPELLGGPSVFLFPPKPKDTLMISRTPEVTCVVVDVSHEDPEVKFNWYVDGVEVHNAKTKPREEQYNSTYRVVSVLTVLHQDWLNGKEYKCKVSNKALPAPIEKTISKAKGQPREPQVYTLPPSREEMTKNQVSLTCLVKGFYPSDIAVEWESNGQPENNYKTTPPVLDSDGSFFLYSKLTVDKSRWQQGNVFSCSVLHEALHAHTTRKELSLSP
light: DIQMTQSPSSLSASVGDRVTITCRASEIIYSYLAWYQQKPGKAPKLLIYKAKTHADGVPSRFSGSGSGTDFTFTISSLQPEDIATYYCKHHFGFPRTFGQGTKVEIKRTVAAPSVFIFPPSDEQLKSGTASVVCLLNNFYPREAKVQWKVDNALQSGNSQESVTEQDSKDSTYSLSSTLTLSKADYEKHKVYACEVTHQGLSSPVTKSFNRGEC
